Data as given in paper PMC4284786, “Refolded scFv Antibody Fragment against Myoglobin Shows Rapid Reaction Kinetics” (International Journal of Molecular Sciences, 2014).

T1: human myoglobin (human, UniProt P02144 1-154)
T1 chain: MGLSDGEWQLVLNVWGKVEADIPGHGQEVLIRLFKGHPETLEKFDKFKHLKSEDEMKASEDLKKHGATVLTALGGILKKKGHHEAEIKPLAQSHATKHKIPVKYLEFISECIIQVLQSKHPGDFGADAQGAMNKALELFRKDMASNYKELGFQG

T2: myoglobin peptide, aa 144–154 (Homo sapiens, UniProt P02144)
T2 construct: also called C-terminal region of the myoglobin peptide; source: synthetic peptide
T2 chain: ASNYKELGFQG


Columns and labels:
conalbumin = target: T3, conalbumin (Gallus gallus (assumed), UniProt P02789); assay: ELISA; proteins coated on a 96-well plate (human myoglobin 5 μg/mL in carbonate buffer pH 9.6, 4 °C, 16 h), blocked with BSA in PBST; scFv or premature antibody added for 1 h at 37 °C; scFv detected by anti-6x His tag antibody and HRP-conjugated secondary antibody; scFv 1.9 μg/mL, IgG2-7Ds 0.5 μg/mL in the comparison of proteins; details: both partners purified
T3 construct: conalbumin (ovotransferrin)

equine myoglobin = target: T4, equine myoglobin (Equus caballus, UniProt P68082); assay: as above; details: both partners purified
T4 construct: myoglobin, equine

human myoglobin [1] = target: T1, human myoglobin; assay: BLI
human myoglobin [2] = target: T1, human myoglobin; assay: BLI
human myoglobin [3] = target: T5, human myoglobin (Homo sapiens, UniProt P02144); assay: BLI; Octet Red; human myoglobin (5 μg/mL in PBS, pH 7.4) immobilised on APS sensor tip at 30 °C for 900 s, blocked with 0.5% casein in PBS; scFv in casein-PBS; BSA as negative control; details: both partners purified
T5 construct: myoglobin, human; also called myoglobin antigen; human myoglobin antigen

[4] = target: T2, myoglobin peptide, aa 144–154; assay: ELISA; synthetic peptides of human myoglobin and human cardiac troponin I; scFv 1.9 μg/mL, IgG2-7Ds 0.5 μg/mL; details: both partners purified

T4 sequence (P68082 whole entry): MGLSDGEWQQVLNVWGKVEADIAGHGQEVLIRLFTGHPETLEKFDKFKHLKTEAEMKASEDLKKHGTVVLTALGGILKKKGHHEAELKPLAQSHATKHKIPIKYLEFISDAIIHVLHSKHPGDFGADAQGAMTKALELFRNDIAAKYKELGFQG
T3 sequence (P02789 20-705): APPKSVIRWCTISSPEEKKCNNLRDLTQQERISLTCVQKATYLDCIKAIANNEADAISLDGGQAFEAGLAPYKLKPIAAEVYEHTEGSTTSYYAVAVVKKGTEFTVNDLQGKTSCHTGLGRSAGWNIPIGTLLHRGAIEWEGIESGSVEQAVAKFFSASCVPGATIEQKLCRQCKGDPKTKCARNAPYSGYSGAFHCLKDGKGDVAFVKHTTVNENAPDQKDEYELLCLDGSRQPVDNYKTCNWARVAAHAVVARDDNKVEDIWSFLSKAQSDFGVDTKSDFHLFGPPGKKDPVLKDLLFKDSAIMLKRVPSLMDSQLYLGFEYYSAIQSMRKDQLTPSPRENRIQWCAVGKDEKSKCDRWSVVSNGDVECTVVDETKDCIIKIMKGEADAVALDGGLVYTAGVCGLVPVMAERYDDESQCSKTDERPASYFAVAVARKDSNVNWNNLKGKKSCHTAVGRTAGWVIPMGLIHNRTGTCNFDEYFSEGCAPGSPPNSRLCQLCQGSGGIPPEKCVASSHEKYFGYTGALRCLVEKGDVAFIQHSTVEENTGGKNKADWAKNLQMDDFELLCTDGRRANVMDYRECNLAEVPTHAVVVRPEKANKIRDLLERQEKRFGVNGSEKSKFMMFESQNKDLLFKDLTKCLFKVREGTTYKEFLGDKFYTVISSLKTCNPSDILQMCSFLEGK

binding result (conalbumin)	binding result (equine myoglobin)	Kd (human myoglobin [1]) [nM]	koff (human myoglobin [2]) [s⁻¹]	Kd (human myoglobin [3]) [nM]	koff (human myoglobin [3]) [s⁻¹]	kon (human myoglobin [3]) [M⁻¹ s⁻¹]	binding result [4]	Binder
no binding (tested: IgG2-7Ds 0.5 μg/mL)	binds	2.89	0.0104	–	–	–	–	parent premature antibody Myo2-7Ds (whole IgG) (antibody, V domains shown, as the VH of m1; constant part of the heavy chain; as the VL of m1; constant part of the light chain; IgG; The variable regions were the template of the scFv m1; also called IgG2-7Ds; parental antibody) VH: QIQLVQSGPELKKPGETVKISCKASGYTFTDYSIHWVRQAPEKGLKWMGWINTETGEPTYADDFTGRFAFSLETSASTAYLQITNLKNEDTATYFCARRFTTTTWFAYWGQGTLVTVSA VL: DVLMTQTPLSLPVSLGDQASISCRSSQNIVHSSGNTYLEWYLQKPGQSPRFLIYKVSNRFSGVPDRFSGSGSGTDFTLKISRVEAEDLGVYYCFQGSHVPYTFGGGTKLEIK
no binding (tested: scFv 1.9 μg/mL)	binds	61.1	–	10	0.00629	93200	binds	refolded scFv-Myo2-7Ds (scFv, V domains shown, VH of the monoclonal antibody Myo2-7Ds; (GGGGS) x 3 linker between VH and VL; VL of the monoclonal antibody Myo2-7Ds; Plasmid pET28a-scFv-Myo2-7Ds6xH, no pelB leader; A TEV cleavage site stands between the N-terminal His6 tag and the scFv; no cleavage is reported; The abstract gives the order VH-VL, but both printed primers seem to encode ends of a light chain; also called 2-7ds …) VH: QIQLVQSGPELKKPGETVKISCKASGYTFTDYSIHWVRQAPEKGLKWMGWINTETGEPTYADDFTGRFAFSLETSASTAYLQITNLKNEDTATYFCARRFTTTTWFAYWGQGTLVTVSA VL: DVLMTQTPLSLPVSLGDQASISCRSSQNIVHSSGNTYLEWYLQKPGQSPRFLIYKVSNRFSGVPDRFSGSGSGTDFTLKISRVEAEDLGVYYCFQGSHVPYTFGGGTKLEIK
